Measurements from article PMC3142795.

Assays:
IFI16 HINa = IFI16 HINa (UniProt Q16666 189-389); test: AlphaScreen
IFI16 HINab = IFI16 HINab (UniProt Q16666 189-761); test: AlphaScreen
Chain of IFI16 HINab (Q16666 189-761): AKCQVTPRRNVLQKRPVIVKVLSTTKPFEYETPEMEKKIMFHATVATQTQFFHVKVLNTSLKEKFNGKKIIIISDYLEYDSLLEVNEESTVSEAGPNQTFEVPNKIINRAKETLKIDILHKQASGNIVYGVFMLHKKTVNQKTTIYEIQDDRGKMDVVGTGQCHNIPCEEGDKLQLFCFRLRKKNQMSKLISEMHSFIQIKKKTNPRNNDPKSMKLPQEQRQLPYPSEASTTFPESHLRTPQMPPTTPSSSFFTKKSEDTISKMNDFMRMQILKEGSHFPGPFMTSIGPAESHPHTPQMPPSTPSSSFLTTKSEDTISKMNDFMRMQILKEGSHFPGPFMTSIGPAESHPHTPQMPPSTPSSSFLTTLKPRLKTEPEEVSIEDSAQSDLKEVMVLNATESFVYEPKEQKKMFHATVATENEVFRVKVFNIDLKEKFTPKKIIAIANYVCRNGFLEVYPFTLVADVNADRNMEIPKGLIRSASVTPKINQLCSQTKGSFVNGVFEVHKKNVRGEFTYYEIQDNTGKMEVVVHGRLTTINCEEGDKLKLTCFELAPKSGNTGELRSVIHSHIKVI

Chain of IFI16 HINa (Q16666 189-389): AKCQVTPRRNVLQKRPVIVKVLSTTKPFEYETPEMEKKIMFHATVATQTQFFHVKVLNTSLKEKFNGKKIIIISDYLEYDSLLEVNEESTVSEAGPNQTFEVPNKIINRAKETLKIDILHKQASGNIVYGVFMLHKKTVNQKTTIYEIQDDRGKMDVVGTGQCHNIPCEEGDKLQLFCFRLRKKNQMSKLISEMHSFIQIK

B1: dsVACV 70mer (dsDNA)
DNA 1: CCATCAGAAAGAGGTTTAATATTTTTGTGAGACCATCGAAGAGAGAAAGAGATAAAACTTTTTTACGACT
DNA 2: AGTCGTAAAAAAGTTTTATCTCTTTCTCTCTTCGATGGTCTCACAAAAATATTAAACCTCTTTCTGATGG
Question: Does B1 bind (IFI16 HINa)?
Answer: Result: no binding

Question: Does B1 bind (IFI16 HINab)?
Answer: Result: binds
